This note sets out measurements from paper PMC1919509 (Nucleic Acids Research, 2007).

This assay concerns the target Single-stranded DNA binding protein (SSB), over-expressed recombinant (E. coli, UniProt P0AGE0 1-178). Put plainly: cross-linking.

Single-stranded DNA binding protein (SSB), over-expressed recombinant, sequence (P0AGE0 whole entry): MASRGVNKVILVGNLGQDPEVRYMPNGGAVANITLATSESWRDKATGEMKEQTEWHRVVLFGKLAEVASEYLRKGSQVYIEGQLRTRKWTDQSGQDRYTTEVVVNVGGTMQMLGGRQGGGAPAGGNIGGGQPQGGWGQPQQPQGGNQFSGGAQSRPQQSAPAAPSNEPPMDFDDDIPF

B1: Exonuclease IX (ExoIX), native recombinant (natural protein, E. coli, UniProt P38506 1-251, looked up)
chain: MAVHLLIVDALNLIRRIHAVQGSPCVETCQHALDQLIMHSQPTHAVAVFDDENRSSGWRHQRLPDYKAGRPPMPEELHDEMPALRAAFEQRGVPCWSTSGNEADDLAATLAVKVTQAGHQATIVSTDKGYCQLLSPTLRIRDYFQKRWLDAPFIDKEFGVQPQQLPDYWGLAGISSSKVPGVAGIGPKSATQLLVEFQSLEGIYENLDAVAEKWRKKLETHKEMAFLCRDIARLQTDLHIDGNLQQLRLVR
With B1, the “stoichiometry N” value is 2 ExoIX molecules per SSB tetramer.
